In IntAct's records for PubMed 23957209:

B1: NADPH oxidase organizer 1 (Homo sapiens), Q8NFA2-3 (parent)
chain: MAGPRYPVSVQGAALVQIKRLQTFAFSVRWSDGSDTFVRRSWDEFRQLKKTLKETFPVEAGLLRRSDRVLPKLLDAPLLGRVGRTSRGLARLQLLETYSRRLLATAERVARSPTITGFFAPQPLDLEPALPPGSRVILPTPEEQPLSRAAGRLSIHSLEAQSLRCLQPFCTQDTRDRPFQAQAQESLDVLLRHPSGWWLVENEDRQTAWFPAPYLEEAAPGQGREGGPSLGSSGPQFCASRAYESSRADELSVPAGARVRVLETSDRGWWLCRYGDRAGLLPAVLLRPEGLGALLSGTGFRGGDDPAGEARGFPEPSQATAPPPTVPTRPSPGAIQSRCCTVTRRALERRPRRQGRPRGCVDSVPHPTTEQ
partner: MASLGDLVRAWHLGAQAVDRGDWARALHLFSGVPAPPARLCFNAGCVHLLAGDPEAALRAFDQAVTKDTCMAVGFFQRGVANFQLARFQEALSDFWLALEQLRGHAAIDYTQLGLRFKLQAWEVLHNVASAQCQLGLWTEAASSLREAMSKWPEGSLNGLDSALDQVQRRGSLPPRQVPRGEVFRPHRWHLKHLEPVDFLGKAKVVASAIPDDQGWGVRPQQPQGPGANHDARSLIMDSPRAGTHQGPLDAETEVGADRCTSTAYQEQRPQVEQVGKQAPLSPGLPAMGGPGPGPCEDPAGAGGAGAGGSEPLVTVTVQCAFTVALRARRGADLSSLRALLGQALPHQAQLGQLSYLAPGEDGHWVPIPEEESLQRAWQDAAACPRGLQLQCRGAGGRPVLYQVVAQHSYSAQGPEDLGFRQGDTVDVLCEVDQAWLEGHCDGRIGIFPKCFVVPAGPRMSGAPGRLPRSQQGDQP
B2: NADPH oxidase organizer 1 (Homo sapiens), Q8NFA2-3 (parent)
chain: B1 chain
partner: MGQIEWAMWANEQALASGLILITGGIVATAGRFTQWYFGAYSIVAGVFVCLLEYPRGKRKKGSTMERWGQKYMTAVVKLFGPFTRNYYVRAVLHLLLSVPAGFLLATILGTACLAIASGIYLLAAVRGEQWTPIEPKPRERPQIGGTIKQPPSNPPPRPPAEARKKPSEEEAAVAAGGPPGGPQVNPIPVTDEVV
B3: NADPH oxidase organizer 1 (Homo sapiens), Q8NFA2-3 (parent)
chain: B1 chain
partner: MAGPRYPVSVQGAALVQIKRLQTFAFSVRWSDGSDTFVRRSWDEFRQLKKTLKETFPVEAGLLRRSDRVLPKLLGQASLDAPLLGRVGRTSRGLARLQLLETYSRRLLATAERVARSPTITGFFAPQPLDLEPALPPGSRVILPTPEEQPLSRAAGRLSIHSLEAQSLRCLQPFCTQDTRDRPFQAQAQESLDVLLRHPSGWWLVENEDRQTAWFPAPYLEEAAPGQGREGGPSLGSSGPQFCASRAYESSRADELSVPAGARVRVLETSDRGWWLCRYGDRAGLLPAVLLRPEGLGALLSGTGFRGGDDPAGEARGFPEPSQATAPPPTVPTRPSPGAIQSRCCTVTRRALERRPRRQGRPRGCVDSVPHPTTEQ
B4: NADPH oxidase activator 1 (Homo sapiens), Q86UR1 (parent)
chain: B1 partner
partner: B1 chain
B5: Cytochrome b-245 light chain (Homo sapiens), P13498 (parent)
chain: B2 partner
partner: B1 chain

Variants of: B1
Conditions: with noxa1_human NOXA1, Q86UR1

Row | Variant | effect of a mutation on the interaction
1 | T341A | disrupting interaction

Variants of: B1
Conditions: with noxa1_human NOXA1, Q86UR1
Remark: another data set of the same source

Row | Variant | effect of a mutation on the interaction
2 | T341D | increasing interaction

Variants of: B1
Conditions: with noxa1_human NOXA1, Q86UR1
Remark: another data set of the same source

Row | Variant | effect of a mutation on the interaction
3 | T341E | increasing interaction

Variants of: B1
Conditions: with noxa1_human NOXA1, Q86UR1
Remark: another data set of the same source

Row | Variant | effect of a mutation on the interaction
4 | T343A | disrupting interaction

Variants of: B2
Conditions: with cy24a_human CYBA, P13498

Row | Variant | effect of a mutation on the interaction
5 | S195A | decreasing interaction

Variants of: B2
Conditions: with cy24a_human CYBA

Row | Variant | effect of a mutation on the interaction
6 | S195E | decreasing interaction

Variants of: B2
Conditions: with cy24a_human CYBA
Remark: another data set of the same source

Row | Variant | effect of a mutation on the interaction
7 | S195D | decreasing interaction

Variants of: B3
Conditions: with noxo1_human NOXO1, Q8NFA2

Row | Variant | effect of a mutation on the interaction
8 | W197R | disrupting interaction

Variants of: B4
Conditions: with NOXO1, Q8NFA2-3

Row | Variant | effect of a mutation on the interaction
9 | W436R | disrupting interaction

Variants of: B5
Conditions: with NOXO1, Q8NFA2-3

Row | Variant | effect of a mutation on the interaction
10 | P156Q | disrupting interaction
